In patent US20030180744, “High affinity oligonucleotide ligands to growth factors” (GILEAD SCIENCES, INC., published 2003):

Tests used:
TGFβ1 [1] = molecular target: T1, TGFβ1 (Homo sapiens, UniProt P01137 P01137:279-390); experiment: cell_activity; second value 112 nM; conditions: tags: Genentech or R&D Systems; chain copies: 2;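 also: inhibition of TGFβ1-induced luciferase reporter expression in mink lung epithelial cells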
Method: (§1) Mink lung epithelial cells (MLEC) carrying the Pail/luc construct were maintained in DME containing 10% fetal bovine serum and 400 μg/ml G418. MLEC-Pail/luc cells were plated at 3.2×10⁴ cells per well in a 96 well Falcon plate, in 100 μl of DME+10% fetal bovine serum overnight. Media was made from autoclaved water. The cells were washed three times ([…]) in serum free DME plus Solution A (1:1). Solution A is 30 mM Hepes pH 7.6, 10 mM glucose, 3.0 mM KCl, 131 mM NaCl, 1.0 mM disodium phosphate. Samples (100 μl) were added in DME containing 20 mM Hepes pH 7.5, and 0.1% BSA (Fluka, radioimmunoassay grade). All samples were in triplicate. After six hours at 37° C. in a 5% CO₂ incubator the media was removed and cells were washed three times (100 μl each) in cold PBS. Lysis buffer (75 μl) (Analytical Luminescence Laboratory) was added and the plates incubated on ice for 20 min. The plates were sealed and frozen at −80° C. until assayed. Samples (25 μl) were assayed for luciferase activity with the Enhanced Luciferase Assay Kit from Analytical Luminescence Laboratory (San Diego, Calif., USA) according to the manufacturer's instructions using the Berthold Microlumat LB96P luminometer.
(§2) Ligands tested for inhibition of TGFβ1 activity were tested at a minimum of five concentrations. […]

TGFβ1 [2] = molecular target: T1, TGFβ1; experiment: cell_activity; second value 157 nM; conditions: tags: Genentech or R&D Systems; chain copies: 2;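 also: inhibition of TGFβ1-induced luciferase reporter expression in mink lung epithelial cells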
Method: as §1, §2

TGFβ1 [3] = molecular target: T1, TGFβ1; experiment: filter; 37 C; cell IC50 20 and 157 nM; conditions: tags: Genentech; biotinylated version used in bead assay; chain copies: 2
TGFβ1 [4] = molecular target: T1, TGFβ1; experiment: cell_activity; second value 201 nM; conditions: tags: Genentech or R&D Systems; chain copies: 2;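 also: inhibition of TGFβ1-induced luciferase reporter expression in mink lung epithelial cells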
Method: as §1, §2

TGFβ1 [5] = molecular target: T1, TGFβ1; experiment: cell_activity; also 108 and 69 nM; stimulates at low concentration; conditions: tags: Genentech or R&D Systems; chain copies: 2;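 also: inhibition of TGFβ1-induced luciferase reporter expression in mink lung epithelial cells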
Method: as §1, §2

TGFβ1 [6] = molecular target: T1, TGFβ1; experiment: filter; second determination 0.2 nM; cell IC50 69-109 nM; conditions: tags: Genentech; biotinylated version used in bead assay; chain copies: 2
TGFβ1 [7] = molecular target: T1, TGFβ1; experiment: filter; boundary experiment; conditions: tags: Genentech or R&D Systems; chain copies: 2

T1 sequence (P01137 279-390, one chain of several): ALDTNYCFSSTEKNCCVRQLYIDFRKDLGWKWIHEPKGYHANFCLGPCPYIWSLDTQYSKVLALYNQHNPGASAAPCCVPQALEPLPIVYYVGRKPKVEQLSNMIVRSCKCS

B1: lib2-6-1 (ssRNA)
RNA: GGGGGAGAACGCGGAUCCUGUCUCCACCGCCGAUACUGGGGUUCCUGGGGCCCCUCCAUGCAGGAGGGGGGUGGUUCGGAGAAAGCUUCGCUCUAGAUCUCCCUUUAGUGAGGGUUA
modifications: 2'-NH2-U, 2'-F-C
B1 was tested, and the IC50 (TGFβ1 [1]) was 103 nM.

B2: lib4-32 (ssRNA)
RNA: GGGGGAGAACGCGGAUCCGGCAACCCCAGGCGCAUAGCUUCCGAGUAGACAGGCGGGAGGGGUGGAUGUGGCGUCACGAGGAAGCUUCGCUCUAGAUCUCCCUUUAGUGAGGGUUA
modifications: 2'-NH2 pyrimidines
Work on B2 yielded an IC50 (TGFβ1 [2]) of 20 nM and a Kd (TGFβ1 [3]) of 0.8 nM.

B3: lib2-6-1-81 (ssRNA)
RNA: GGGGGAGAACGCGGAUCCUGUCUCCACCGCCGAUACUGGGGUUCCUGGGGCCCCUCCAUGCAGGAGGGGGGUGGUUCGGAG
modifications: 2'-NH2-U, 2'-F-C
Binder B3 has an IC50 (TGFβ1 [4]) of 298 nM.

B4: lib4-12 (ssRNA)
RNA: GGGGGAGAACGCGGAUCCUGAGAAGGACGUCGGGGUCAACGGGGUGAGGUGCAGCAGAAAGGGCCGGCACCACAUGACGUAAAAGCUUCGCUCUAGAUCUCCCUUUAGUGAGGGUUA
modifications: 2'-NH2 pyrimidines
B4 was tested, and the IC50 (TGFβ1 [5]) was 109 nM and the Kd (TGFβ1 [6]) was 0.4 nM.

CUUCCGAGUAGACAGGAGGGAGGGGUGGAUGUGGCGUCUACUC (ssRNA) [lib8-9 boundaries]: binds (TGFβ1 [7]).
